B1: hSIRPα.50A (antibody, V domains shown)
VH: QVQLQQSGPELVKPGASVRISCKASGFTFTNYYIHWVKQRPGQGLEWIGWIYPGNVNTKYNEKFKAKATLTADKSSTTAYMQLSSLASEDSAVYFCARPTIIATDFDVWGAGTTVTVSS
VL: DIVMTQSHKFMSTSVGDRVNITCKASQGVGTAVGWYQQKPGQSPRLLIYWASTRHTGVPDRFTGSGSGTDFSLAISNVQSEDLADYFCQQYSTYPFTFGGGTNLEIK
notes: light chain constant domain not tied; also called mouse hSIRPα.50A; hSIRPα.50A.mIgG1
B2: KWAR23 (antibody, V domains shown)
VH: EVQLQQSGAELVKPGASVKLSCTASGFNIKDYYIHWVQQRTEQGLEWIGRIDPEDGETKYAPKFQDKATITADTSSNTAYLHLSSLTSEDTAVYYCARWGAYWGQGTLVTVSS
VL: QIVLTQSPAIMSASPGEKVTLTCSASSSVSSSYLYWYQQKPGSSPKLWIYSTSNLASGVPARFSGSGSGTSYSLTISSMEAEDAASYFCHQWSSYPRTFGAGTKLELK
B3: hSIRPα.40A (antibody, mouse IgG1, kappa, V domains shown)
VH: EVQFQQSGTVLARPGTSVKMSCKASGSTFTSYWMHWVKQGPGQGLQWIGAIYPVNNDTTYNQKFKGKAELTVVTSTSTAYMEVSSLTNEDSAVYYCTRSFYYSLDAAWFVYWGQGTLVTVSA
VL: DIQMTQSPSSLSASLGERVSLTCRASQDIGSRLNWLQQEPDGTIKRLIYATSSLDSGVPKRFSGSRSGSDYSLTISGLESEDFVDYYCLQYASSPFTFGGGTKLEINR
notes: mouse antibody, full chains without signal peptide; also called mouse hSIRPα.40A

Experiments:
human SIRPα variant 1 [1] = target: T1, human SIRPα variant 1 (human, UniProt P78324 31-504); assay: CELISA, CHO-K1 transfectants; average of two experiments
T1 construct: full length ORF on transfected CHO-K1 or HEK293 cells; entry includes the signal peptide; also called hSIRPαV1; SIRPαV1
T1 sequence (P78324 31-504 limits assumed, change not shown): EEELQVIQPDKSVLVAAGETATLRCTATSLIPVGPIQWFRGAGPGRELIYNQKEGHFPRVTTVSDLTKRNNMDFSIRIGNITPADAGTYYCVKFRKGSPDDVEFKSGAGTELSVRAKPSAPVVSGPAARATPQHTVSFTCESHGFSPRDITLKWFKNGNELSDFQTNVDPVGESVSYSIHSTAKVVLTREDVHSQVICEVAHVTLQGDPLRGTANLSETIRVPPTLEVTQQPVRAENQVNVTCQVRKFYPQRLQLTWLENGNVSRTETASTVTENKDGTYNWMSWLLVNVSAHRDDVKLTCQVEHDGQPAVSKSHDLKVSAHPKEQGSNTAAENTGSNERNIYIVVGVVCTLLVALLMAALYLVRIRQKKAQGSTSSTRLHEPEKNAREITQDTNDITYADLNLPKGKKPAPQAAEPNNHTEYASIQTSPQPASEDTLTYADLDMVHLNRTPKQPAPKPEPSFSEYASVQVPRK
Procedure: (§1) The binding specificity of antibodies hSIRPα.40A and hSIRPα.50A to hSIRPα were compared in a CELISA format. In short, CHO-K1 cells were transiently transfected with hSIRPαV1, hSIRPαV2, hSIRPβ1, hSIRPβL, and hSIRPγ cDNAs. Subsequently, hSIRPα binding was assessed by CELISA using CHO-K1.hSIRPαV1, CHO-K1.hSIRPαV2, CHO-K1.hSIRPβ1, CHO-K1.hSIRPβL, and CHO-K1.hSIRPγ cells. Detection of bound antibody was done with goat-anti-mouse IgG-HRP (Southern Biotech).

human SIRPα variant 2 [2] = target: T2, human SIRPα variant 2 (human, UniProt P78324 31-504); assay: as above
T2 construct: full length ORF on transfected CHO-K1 cells; also called hSIRPαV2; SIRPαV2
T2 sequence (P78324 other isoform, or with tags, fused parts or gaps mutant limits assumed): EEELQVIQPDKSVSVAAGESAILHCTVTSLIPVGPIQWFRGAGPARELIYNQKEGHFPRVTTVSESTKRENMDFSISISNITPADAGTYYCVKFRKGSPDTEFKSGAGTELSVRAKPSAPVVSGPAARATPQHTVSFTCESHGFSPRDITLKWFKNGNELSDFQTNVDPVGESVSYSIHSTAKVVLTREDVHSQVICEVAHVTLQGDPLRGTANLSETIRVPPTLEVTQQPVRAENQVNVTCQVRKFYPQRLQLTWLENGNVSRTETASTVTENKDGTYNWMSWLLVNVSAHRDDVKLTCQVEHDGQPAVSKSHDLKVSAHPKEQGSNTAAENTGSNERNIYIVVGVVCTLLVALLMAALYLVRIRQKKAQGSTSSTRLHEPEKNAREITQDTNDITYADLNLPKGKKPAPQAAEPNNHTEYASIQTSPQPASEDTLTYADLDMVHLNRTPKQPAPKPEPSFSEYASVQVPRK
Procedure: as §1

human SIRPα variant 2 [3] = target: T2, human SIRPα variant 2; assay: flow cytometry, blockade of DyLight488-hCD47/Fc binding to THP-1 cells
Procedure, shortened: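 THP-1 or U-937 monocyte cells in 96-well round-bottom plates were incubated for 45 minutes at 4 °C in PBS/1% BSA with FcR Blocking Reagent and a dilution series of anti-SIRPα antibody. Cells were washed, resuspended with 0.1 μg/mL DAPI and measured by flow cytometry, with analysis in FlowJo. IC50 is the antibody concentration giving half-maximal inhibition of CD47/Fc binding.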

human SIRPα variant 1 [4] = target: T1, human SIRPα variant 1; assay: CELISA, CHO-K1 transfectants, point mutant study
Procedure: Amino acids in the hSIRPα IgV domain that are altered in hSIRPβ1 were mutated by using the QuikChange II Site-Directed Mutagenesis Kit (Stratagene) and the full length hSIRPαV1 sequence (SEQ ID NO: 33) as donor cDNA. Binding of hSIRPα.40A to hSIRPαV1 point mutants was tested using CELISA. To this end, CHO-K1 cells were transiently transfected, using Lipofectamine 2000, with cDNA encoding the full length open reading frame of hSIRPαV1 and mutants thereof, and hSIRPβ1 subcloned into the pCI-neo vector. Transfected cells were seeded in culture medium (DMEM-F12 (Gibco) supplemented with 5% New Born Calf Serum (BioWest) and Pen/Strep (Gibco)) in 96-well flat-bottom tissue culture plates and incubated at 37° C., 5% CO₂ and 95% humidity for 24 hours. Subsequently, culture medium was removed and cells were incubated for 1 hour at 37° C., 5% CO₂ and 95% humidity with purified hSIRPα antibodies (used at 10 μg/mL and dilutions thereof). Next, cells were washed with PBS-T and incubated for 1 hour at 37° C., 5% CO₂ and 95% humidity with goat-anti-mouse IgG-HRP (Southern Biotech). Subsequently, cells were washed three times with PBS-T and immunoreactivity against hSIRPαV1, hSIRPαV1 mutants, and hSIRPβ1 was visualized with TMB Stabilized Chromogen (Invitrogen). Reactions were stopped with 0.5 M H₂SO₄ and absorbances were read at 450 and 610 nm. […]

[5] = target: T3, hSIRPα expressed on primary human cells (human, UniProt P78324 31-504); assay: flow cytometry, primary human granulocytes, donor 1
T3 construct: whole, on cells; also called hSIRPα on primary human CD14+ monocytes; on primary human granulocytes
T3 sequence (P78324 31-504): as the sequence (P78324 31-504 limits assumed, change not shown) above
Procedure: Next, cells were centrifuged at 300 g for 7 minutes. Supernatants containing lysed RBCs were removed by aspiration, and the remaining blood cells were gently resuspended in RBC lysis buffer and kept on ice for 1 minute. RBC lysis was neutralized by adding assay medium (IMDM (Gibco) supplemented with 10% Fetal Bovine Serum (Gibco) and Pen/Strep (Gibco)). Blood cells were centrifuged at 300 g for 6 minutes and supernatants were removed by aspiration to remove remaining RBCs as much as possible. Subsequently, erythrocyte-lysed blood cells were resuspended in assay medium containing 10 ng/mL IFNγ and cells were incubated for 1 hour at 37° C., 5% CO₂ and 95% humidity. […] The percentage of granulocytes present in the cell suspension was determined by flow cytometry on the FACSCanto II (BD Biosciences) based on high forward scatter (FSC) and side scatter (SSC). Binding of hSIRPα.50A to human granulocytes was assessed by incubating the cells for 30 minutes at 4° C. with hSIRPα.50A antibody (25 μg/mL and dilutions thereof) in PBS/1% BSA containing 10% autologous serum (PBS/1% BSA/10% serum). […] After this labeling procedure, cells were washed two times, resuspended in PBS/1% BSA/10% serum and analysed by flow cytometry on the FACSCanto II (BD Biosciences). Data were processed and analysed with FlowJo V10 software (FlowJo, LLC). […]

human SIRPγ = target: T4, human SIRPγ (human, UniProt Q9P1W8 29-387); assay: flow cytometry, Jurkat E6.1 cells
T4 construct: on transfected CHO-K1 cells; also called hSIRPγ
T4 sequence (Q9P1W8 29-387 limits assumed): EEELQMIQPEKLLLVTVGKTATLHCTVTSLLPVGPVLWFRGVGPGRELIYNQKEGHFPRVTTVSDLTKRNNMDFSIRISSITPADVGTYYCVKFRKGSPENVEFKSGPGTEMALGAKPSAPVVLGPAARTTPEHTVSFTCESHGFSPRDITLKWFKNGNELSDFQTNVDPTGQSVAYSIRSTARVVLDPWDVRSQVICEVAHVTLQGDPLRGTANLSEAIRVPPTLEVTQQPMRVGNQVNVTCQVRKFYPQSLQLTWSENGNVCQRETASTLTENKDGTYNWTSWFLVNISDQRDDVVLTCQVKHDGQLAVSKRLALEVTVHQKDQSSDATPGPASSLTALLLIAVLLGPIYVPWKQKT
Procedure: Binding to hSIRPγ was assessed by flow cytometry using the Jurkat E6.1 T cell leukemia cell line (ECACC 88042803). Jurkat cells were seeded in 96-well round bottomed tissue culture plates and incubated for 40 minutes with the anti-hSIRPα antibodies (20 μg/mL and dilutions thereof) in PBS/1% BSA at 4° C. […] After this labeling procedure, cells were washed two times, resuspended in PBS/1% BSA, containing 0.1 μg/mL DAPI (BioLegend), and analysed by flow cytometry on the FACSVerse (BD Biosciences). Data were processed and analysed with FlowJo V10 software (FlowJo, LLC).

Binder	EC50 (human SIRPα variant 1 [1])	EC50 (human SIRPα variant 2 [2])	IC50 (human SIRPα variant 2 [3])	EC50 (human SIRPα variant 1 [4])	EC50 [5]	EC50 (human SIRPγ)
B1	1.43 nM	1.16 nM	7.83 nM	0.534 nM	4.3 nM	
B2						0.003 nM
B3	0.109 nM	0.088 nM	0.646 nM	0.065 nM	1.23 nM	0.369 nM
